For the series, the target named is T1, endothelial protein C receptor (UniProt Q9UNN8).
T1 sequence: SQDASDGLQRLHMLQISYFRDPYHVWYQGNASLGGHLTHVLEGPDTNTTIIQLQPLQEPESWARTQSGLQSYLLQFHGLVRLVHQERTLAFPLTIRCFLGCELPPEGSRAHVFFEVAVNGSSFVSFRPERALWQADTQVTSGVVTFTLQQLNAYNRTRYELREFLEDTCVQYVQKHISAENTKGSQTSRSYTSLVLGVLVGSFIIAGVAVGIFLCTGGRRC

Activated protein C: the “LPS-induced NF-κB activity (western blot for the active form of NF-κB in lysates of RA monocytes)” value is recorded as “APC's inhibitory effect on LPS-induced NF-κB activity was almost totally reversed by RCR252, whereas RCR92 had only limited effect”.

Values taken from patent US20080293631.
